Data on one substance can be found in article PMC10516056.

Several values for one entry are separate records, joined by “and”; a condition that tells them apart may be missing. Equal entries are not always repeated.

For assay [1], the target named is SPARTA heterodimer (TIR-APAZ/short pAgo complex) from Crenotalea thermophila (Crenotalea thermophila). The assay can be described thus: cryo-EM structure.
The target is the same in assay [2]. The assay can be described thus: mass photometry.

The term stoichiometry N denotes a count of units in the complex or per binding partner. “SPARTA heterodimer (TIR-APAZ/short pAgo complex) from Crenotalea thermophila”: the stoichiometry N in assay [1] is 4; in assay [2], 2 and 4.
